Test results published in patent US20230331820A1 (GlaxoSmithKline, published 2023).
Read-outs that look alike come from different tables or passages of the source.

Experiments:
[1] = molecular target: T1, gEgI WT: HSV2 gEgI heterodimer comprising gE and gI wildtype ectodomains (HSV2, UniProt P89475 21-416; P06764 21-256); experiment: Biacore SPR, gEgI CHO BMP1181 at 10 µg/ml for 180 s over the mAb
[2] = molecular target: T2, gI WT: HSV2 gI wildtype ectodomain (HSV2, UniProt P06764 21-256); experiment: ELISA, supernatant
[3] = molecular target: T3, gEgI mutant (P317R): HSV2 gEgI mutant heterodimer comprising gE and gI ectodomains with mutation P317R in gE (HSV2, UniProt P89475 21-416; P06764 21-256); experiment: SPR single-cycle kinetics, mAb captured on RAM; gEgI mutant batch 2
[4] = molecular target: T1, gEgI WT: HSV2 gEgI heterodimer …; experiment: Biacore SPR, gEgI HEK BMP1063 at 10 µg/ml for 180 s over the mAb
[5] = molecular target: T3, gEgI mutant (P317R): HSV2 gEgI mutant …; experiment: SPR single-cycle kinetics, mAb captured on RAM; gEgI mutant batch 1
[6] = molecular target: gEgI mutant (338): HSV2 gEgI mutant heterodimer comprising gE and gI ectodomains with insertion of a (HSV2, UniProt P89475 21-416; P06764 21-256); experiment: ELISA, supernatant
[7] = molecular target: T1, gEgI WT: HSV2 gEgI heterodimer …; experiment: SPR single-cycle kinetics, mAb captured on RAM, gEgI as analyte, 1:1 model
[8] = molecular target: T1, gEgI WT: HSV2 gEgI heterodimer …; experiment: ELISA, supernatant
[9] = molecular target: T4, gE WT: HSV2 gE wildtype ectodomain (HSV2, UniProt P89475 21-416); experiment: ELISA, supernatant
[10] = molecular target: T3, gEgI mutant (P317R): HSV2 gEgI mutant …; experiment: ELISA, supernatant
[11] = molecular target: gEgI mutant (P319D): HSV2 gEgI mutant heterodimer comprising gE and gI ectodomains with mutation P319D in gE (HSV2, UniProt P89475 21-416; P06764 21-256); experiment: ELISA, supernatant
[12] = molecular target: gEgI mutant (R320D): HSV2 gEgI mutant heterodimer comprising gE and gI ectodomains with mutation R320D in gE (HSV2, UniProt P89475 21-416; P06764 21-256); experiment: ELISA, supernatant
[13] = molecular target: T1, gEgI WT: HSV2 gEgI heterodimer …; experiment: SPR binning; gEgI captured by mAb 19
[14] = molecular target: T1, gEgI WT: HSV2 gEgI heterodimer …; experiment: SPR binning; gEgI captured by mAb 20
[15] = molecular target: T1, gEgI WT: HSV2 gEgI heterodimer …; experiment: SPR binning; gEgI captured by mAb 15
[16] = molecular target: T4, gE WT: HSV2 gE wildtype ectodomain; experiment: ELISA, supernatant; remark: listed apart in the source
[17] = molecular target: T1, gEgI WT: HSV2 gEgI heterodimer …; experiment: SPR binning; gEgI captured by mAb 5
[18] = molecular target: T1, gEgI WT: HSV2 gEgI heterodimer …; experiment: SPR binning; gEgI captured by mAb 34
[19] = molecular target: T1, gEgI WT: HSV2 gEgI heterodimer …; experiment: SPR binning; gEgI captured by mAb 42
[20] = molecular target: T1, gEgI WT: HSV2 gEgI heterodimer …; experiment: SPR binning; gEgI captured by mAb 40
[21] = molecular target: T1, gEgI WT: HSV2 gEgI heterodimer …; experiment: SPR binning; gEgI captured by mAb 45
[22] = molecular target: T1, gEgI WT: HSV2 gEgI heterodimer …; experiment: SPR binning; gEgI captured by mAb 39
[23] = molecular target: T1, gEgI WT: HSV2 gEgI heterodimer …; experiment: SPR binning; gEgI captured by mAb 10
[24] = molecular target: T1, gEgI WT: HSV2 gEgI heterodimer …; experiment: SPR binning; gEgI captured by mAb 9
[25] = molecular target: T1, gEgI WT: HSV2 gEgI heterodimer …; experiment: SPR binning; gEgI captured by mAb 24
[26] = molecular target: T1, gEgI WT: HSV2 gEgI heterodimer …; experiment: SPR binning; gEgI captured by mAb 17
[27] = molecular target: T2, gI WT: HSV2 gI wildtype ectodomain; experiment: ELISA, supernatant; remark: listed apart in the source

B1: mAb clone 12, 13 (antibody, V domains shown)
VH: QVQLKESGPGLVAPSQSLSITCTVSGFSLTSYGVHWVRQPPGKGLEWLGVIWAGGSTNYNSALMSRLSISKDNSKSQVFLKMNSLQTDDTAMYFCARGGITSLHNYVMDYWGQGTSVTVSS
VL: DIVLTQSPASLAVSLGQRATISCRASESVEYYGTSLMQWYQQKPGQPPKLLIYAASNVESGVPARFSGSGSGTHFSLNIHPVEEDDIAMYFCQQSRKVPSTFGGGTKLEIK
notes: also called mAb 12; mAb12
[1]
  RU Ag/250 RU mAbs: 112 RU Ag/250 RU mAbs
[2]
  binding result: no binding
[3]
  Kd: 11.5 nM
  koff: 0.00324 s⁻¹
  kon: 280000 M⁻¹ s⁻¹
[4]
  RU Ag/250 RU mAbs: 108 RU Ag/250 RU mAbs
[5]
  Kd: 7.68 nM
  koff: 0.00325 s⁻¹
  kon: 422000 M⁻¹ s⁻¹
[6]
  binding result: binds
[7]
  Kd: 6.89 nM
  koff: 0.00197 s⁻¹
  kon: 285000 M⁻¹ s⁻¹

B2: mAb clone 41 (antibody, V domains shown)
VH: QVQLQQSGAELVRPGTSVKVSCKASGYAFTNYLIEWVKQRPGQGLEWIGVINPGSGGTNYNEKFKGKATLTADKSSSTAYMQLSSLTSDDSAVYFCARSGLRRDYYAMDYWGQGTSVTVSS
VL: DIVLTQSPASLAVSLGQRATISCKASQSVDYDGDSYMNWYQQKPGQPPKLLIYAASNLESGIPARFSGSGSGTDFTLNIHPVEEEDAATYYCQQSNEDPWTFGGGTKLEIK
[2]
  binding result: binds
[8]
  binding result: binds
[6]
  binding result: binds
[9]
  binding result: no binding
[10]
  binding result: binds
[11]
  binding result: binds
[12]
  binding result: binds

B3: mAb clone 40 (antibody, V domains shown)
VH: QIQLVQSGPELKKPGETVKISCKASGYTFTNYGMNWVKQAPGKGLKWMGWINTYTGEPTYADDFKGRFAFSLETSASTAYLQINNLKNEDTATYFCARSLYGYDEGYFDVWGAGTTVTVSS
VL: DIQMTQSPASLSASVGETVTITCRASGNIHNYLAWYQQKQGKSPQLLVYNAKTLADGVPSRFSGSGSGTQYSLKINSLQPEDFGSYYCQHFWSTPYTFGGGTKLEIK
[13]
  RU: 6.4 RU
[14]
  RU: 10 RU
[15]
  RU: -0.4 RU
[16]
  binding result: no binding
[2]
  binding result: no binding
[17]
  RU: 9 RU
[18]
  RU: 5.2 RU
[19]
  RU: 7.4 RU
[20]
  RU: 2.6 RU
[21]
  RU: 7.3 RU
[22]
  RU: 9 RU
[23]
  RU: 9.8 RU
[24]
  RU: 8.8 RU
[6]
  binding result: binds
[25]
  RU: 7.6 RU
[26]
  RU: 8.8 RU

B4: mAb clone 48 (antibody, V domains shown)
VH: QVTLKESGPGILQPSQTLSLTCSFSGFSLSTSGMGVSWIRQPSGKGLEWLAHIYWDDDKRYNPSLKSRLTISKDTSSNQVFLKITSVDTADTATYYCARRGFYYRYDGGRRYYYAMDYWGQGTSVTVSS
VL: DILLTQSPAILSVSPGERVSFSCRASQSIGTSIHWYQQGTNGSPRLLIKFASESISGIPSRFSGSGSGTDFTLSINSVESEDIADYYCQQSNSWPLTFGAGTKLELK
[16]
  binding result: binds
[8]
  binding result: binds
[6]
  binding result: binds
[10]
  binding result: binds
[11]
  binding result: binds
[27]
  binding result: no binding
[12]
  binding result: binds

B5: mAb clone 37 (antibody, V domains shown)
VH: EVQLQQSGPELVKPGASVKISCKASGYTFTDYNMHWVKQSHGKSLEWIGYIYPYNGGTGYNQKFKTKATLTVDNSSSTAYMELRSLTSEDSAVYYCAIPGYYYAMDYWGQGTSVTVSS
VL: DIVLTQSPASLAVSLGQRATISCRASKSVSTSGYSYMHWYQQKPGQPPKLLIYLASNLESGVPARFSGSGSGTDFTLNIHPVEEEDASTYYCHHSRELPRTFGGGTKLEIK
[16]
  binding result: binds
[2]
  binding result: no binding
[8]
  binding result: binds
[6]
  binding result: binds
[10]
  binding result: binds
[11]
  binding result: binds
[12]
  binding result: binds
